# Reference: patent US20090252683A1 (Amgen, published 2009)
# T1: human EpCAM antigen on Kato III cells or human EpCAM transfected CHO cells (human, UniProt P16422 24-265)
# T1 construct: 137 holds only the extracellular portion; the protein stood whole on cells
# T1 sequence: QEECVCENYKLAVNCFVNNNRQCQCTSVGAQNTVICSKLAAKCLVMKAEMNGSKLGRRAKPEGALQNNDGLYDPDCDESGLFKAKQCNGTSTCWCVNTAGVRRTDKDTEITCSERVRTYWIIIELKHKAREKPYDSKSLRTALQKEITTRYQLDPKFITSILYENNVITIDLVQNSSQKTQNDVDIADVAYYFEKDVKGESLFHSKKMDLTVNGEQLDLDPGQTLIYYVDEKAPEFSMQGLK
# T2: cynomolgus EpCAM antigen on transfected CHO cells (cynomolgus, UniProt Q1WER1 24-265 (rhesus entry))
# T2 sequence: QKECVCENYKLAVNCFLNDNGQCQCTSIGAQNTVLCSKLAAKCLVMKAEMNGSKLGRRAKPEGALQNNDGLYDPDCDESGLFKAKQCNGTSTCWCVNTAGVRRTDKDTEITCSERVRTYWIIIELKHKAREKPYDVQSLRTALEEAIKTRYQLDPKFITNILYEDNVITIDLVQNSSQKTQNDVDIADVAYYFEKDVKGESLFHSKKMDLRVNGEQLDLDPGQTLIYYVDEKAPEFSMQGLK
# B1: 2G8LH×SEQ ID NO. 10 bispecific single chain antibody (bispecific antibody)
# chain: DVVMTQTPLTLSVTIGQPASISCKSSQSLLYSNGKTYLNWILQRPGQSPKRLIYLVSKLDSGVPDRFTGSGSGTDFTLKISRVEAEDLGVYYCVQGTHFPLTFGAGTKLELKGGGGSGGGGSGGGGSEVQLQQSGAELVRSGASVKLSCTASGFNIKDYYLHWVKQRPEQGLEWIAWIDLENGDIKYAPKFQGKATITADTSSNTAYLQLSSLTSEDTAVYYCNPYYYGSNYDYAMDYWGQGTSVTVSSGGGGSEVKLLESGGGLVQPKGSLKLSCAASGFTFNTYAMNWVRQAPGKGLEWVARIRSKYNNYATYYADSVKDRFTISRDDSQSILYLQMNNLKTEDTAMYYCVRHGNFGNSYVSWFAYWGQGTLVTVSAGGGGSGGGGSGGGGSQAVVTQESALTTSPGETVTLTCRSSTGAVTTSNYANWVQEKPDHLFTGLIGGTNKRAPGVPARFSGSLIGDKAALTITGAQTEDEAIYFCALWYSNLWVFGGGTKLTVLHHHHHH
# B2: 2G8HL×SEQ ID NO. 16 bispecific single chain antibody (bispecific antibody)
# chain: EVQLQQSGAELVRSGASVKLSCTASGFNIKDYYLHWVKQRPEQGLEWIAWIDLENGDIKYAPKFQGKATITADTSSNTAYLQLSSLTSEDTAVYYCNPYYYGSNYDYAMDYWGQGTSVTVSSGGGGSGGGGSGGGGSDVVMTQTPLTLSVTIGQPASISCKSSQSLLYSNGKTYLNWILQRPGQSPKRLIYLVSKLDSGVPDRFTGSGSGTDFTLKISRVEAEDLGVYYCVQGTHFPLTFGAGTKLELKSGGGGSQVVLTQSPAIMSAFPGEKVTMTCSASSSVSYMNWYQQKSGTSPKRWIYDSSKLASGVPARFSGSGSGTSYSLTISSMETEDAATYYCQQWSRNPPTFGGGTKLQITGGGGSGGGGSGGGGSQVQLQQSGAELARPGASVKMSCKASGYTFTRSTMHWVKQRPGQGLEWIGYINPSSAYTNYNQKFKDKATLTADKSSSTAYMQLSSLTSEDSAVYYCASPQVHYDYNGFPYWGQGTLVTVSAHHHHHH
# B3: 2G8LH×SEQ ID NO. 14 bispecific single chain antibody (bispecific antibody)
# chain: DVVMTQTPLTLSVTIGQPASISCKSSQSLLYSNGKTYLNWILQRPGQSPKRLIYLVSKLDSGVPDRFTGSGSGTDFTLKISRVEAEDLGVYYCVQGTHFPLTFGAGTKLELKGGGGSGGGGSGGGGSEVQLQQSGAELVRSGASVKLSCTASGFNIKDYYLHWVKQRPEQGLEWIAWIDLENGDIKYAPKFQGKATITADTSSNTAYLQLSSLTSEDTAVYYCNPYYYGSNYDYAMDYWGQGTSVTVSSGGGGSQVQLQQSGAELARPGASVKMSCKASGYTFTRSTMHWVKQRPGQGLEWIGYINPSSAYTNYNQKFKDKATLTADKSSSTAYMQLSSLTSEDSAVYYCASPQVHYDYNGFPYWGQGTLVTVSAGGGGSGGGGSGGGGSQVVLTQSPAIMSAFPGEKVTMTCSASSSVSYMNWYQQKSGTSPKRWIYDSSKLASGVPARFSGSGSGTSYSLTISSMETEDAATYYCQQWSRNPPTFGGGTKLQITHHHHHH
# B4: 2G8HL×SEQ ID NO. 10 bispecific single chain antibody (bispecific antibody)
# chain: EVQLQQSGAELVRSGASVKLSCTASGFNIKDYYLHWVKQRPEQGLEWIAWIDLENGDIKYAPKFQGKATITADTSSNTAYLQLSSLTSEDTAVYYCNPYYYGSNYDYAMDYWGQGTSVTVSSGGGGSGGGGSGGGGSDVVMTQTPLTLSVTIGQPASISCKSSQSLLYSNGKTYLNWILQRPGQSPKRLIYLVSKLDSGVPDRFTGSGSGTDFTLKISRVEAEDLGVYYCVQGTHFPLTFGAGTKLELKSGGGGSEVKLLESGGGLVQPKGSLKLSCAASGFTFNTYAMNWVRQAPGKGLEWVARIRSKYNNYATYYADSVKDRFTISRDDSQSILYLQMNNLKTEDTAMYYCVRHGNFGNSYVSWFAYWGQGTLVTVSAGGGGSGGGGSGGGGSQAVVTQESALTTSPGETVTLTCRSSTGAVTTSNYANWVQEKPDHLFTGLIGGTNKRAPGVPARFSGSLIGDKAALTITGAQTEDEAIYFCALWYSNLWVFGGGTKLTVLHHHHHH
# B5: 2G8LH×SEQ ID NO. 16 bispecific single chain antibody (bispecific antibody)
# chain: DVVMTQTPLTLSVTIGQPASISCKSSQSLLYSNGKTYLNWILQRPGQSPKRLIYLVSKLDSGVPDRFTGSGSGTDFTLKISRVEAEDLGVYYCVQGTHFPLTFGAGTKLELKGGGGSGGGGSGGGGSEVQLQQSGAELVRSGASVKLSCTASGFNIKDYYLHWVKQRPEQGLEWIAWIDLENGDIKYAPKFQGKATITADTSSNTAYLQLSSLTSEDTAVYYCNPYYYGSNYDYAMDYWGQGTSVTVSSGGGGSQVVLTQSPAIMSAFPGEKVTMTCSASSSVSYMNWYQQKSGTSPKRWIYDSSKLASGVPARFSGSGSGTSYSLTISSMETEDAATYYCQQWSRNPPTFGGGTKLQITGGGGSGGGGSGGGGSQVQLQQSGAELARPGASVKMSCKASGYTFTRSTMHWVKQRPGQGLEWIGYINPSSAYTNYNQKFKDKATLTADKSSSTAYMQLSSLTSEDSAVYYCASPQVHYDYNGFPYWGQGTLVTVSAHHHHHH
# B6: 2G8HL×SEQ ID NO. 14 bispecific single chain antibody (bispecific antibody)
# chain: EVQLQQSGAELVRSGASVKLSCTASGFNIKDYYLHWVKQRPEQGLEWIAWIDLENGDIKYAPKFQGKATITADTSSNTAYLQLSSLTSEDTAVYYCNPYYYGSNYDYAMDYWGQGTSVTVSSGGGGSGGGGSGGGGSDVVMTQTPLTLSVTIGQPASISCKSSQSLLYSNGKTYLNWILQRPGQSPKRLIYLVSKLDSGVPDRFTGSGSGTDFTLKISRVEAEDLGVYYCVQGTHFPLTFGAGTKLELKSGGGGSQVQLQQSGAELARPGASVKMSCKASGYTFTRSTMHWVKQRPGQGLEWIGYINPSSAYTNYNQKFKDKATLTADKSSSTAYMQLSSLTSEDSAVYYCASPQVHYDYNGFPYWGQGTLVTVSAGGGGSGGGGSGGGGSQVVLTQSPAIMSAFPGEKVTMTCSASSSVSYMNWYQQKSGTSPKRWIYDSSKLASGVPARFSGSGSGTSYSLTISSMETEDAATYYCQQWSRNPPTFGGGTKLQITHHHHHH
# B7: 2G8LH×SEQ ID NO. 12 bispecific single chain antibody (bispecific antibody)
# chain: DVVMTQTPLTLSVTIGQPASISCKSSQSLLYSNGKTYLNWILQRPGQSPKRLIYLVSKLDSGVPDRFTGSGSGTDFTLKISRVEAEDLGVYYCVQGTHFPLTFGAGTKLELKGGGGSGGGGSGGGGSEVQLQQSGAELVRSGASVKLSCTASGFNIKDYYLHWVKQRPEQGLEWIAWIDLENGDIKYAPKFQGKATITADTSSNTAYLQLSSLTSEDTAVYYCNPYYYGSNYDYAMDYWGQGTSVTVSSGGGGSQAVVTQESALTTSPGETVTLTCRSSTGAVTTSNYANWVQEKPDHLFTGLIGGTNKRAPGVPARFSGSLIGDKAALTITGAQTEDEAIYFCALWYSNLWVFGGGTKLTVLGGGGSGGGGSGGGGSEVKLLESGGGLVQPKGSLKLSCAASGFTFNTYAMNWVRQAPGKGLEWVARIRSKYNNYATYYADSVKDRFTISRDDSQSILYLQMNNLKTEDTAMYYCVRHGNFGNSYVSWFAYWGQGTLVTVSAHHHHHH
# Biological target: T1, human EpCAM antigen on Kato III cells …
# Assay: FACS, Kato III cells (FIG. 8A), anti-His detection
# Excerpt: (§1) FIG. 8: FACS assay for binding of 2G8LH×SEQ ID NO. 12, 2G8LH×SEQ ID NO. 10, 2G8LH×SEQ ID NO. 16, 2G8LH×SEQ ID NO. 14, 2G8HL×SEQ ID NO. 12, 2G8HL×SEQ ID NO. 10, 2G8HL×SEQ ID NO. 16 and 2G8HL×SEQ ID NO. 14 on Kato III (FIG. 8A) cells or cynomolgus EpCAM transfected CHO cells (FIG. 8B) and HPB-ALL cells. Antigen binding was clearly detectable for the anti EpCAM specificities as well as for the anti CD3 specificities. As a negative control for binding to cynomolgus EpCAM, the 5-10LH×SEQ ID NO.
# (§2) Binding of the bifunctional constructs from cell culture supernatants or binding of purified bifunctional constructs to the human EpCAM antigen on Kato III cells or cynomolgus EpCAM transfected CHO cells and to the CD3 antigen on HPB-ALL cells was tested using an FACS assay. For that purpose 2.5×10⁵ cells were incubated with 50 μl supernatant or with 5 μg/ml of the purified constructs in 50 μl PBS with 2% FCS. The binding of the constructs was detected with an anti-His antibody (Penta-His Antibody, BSA free, obtained from Qiagen GmbH, Hilden, FRG) at 2 μg/ml in 50 μl PBS with 2% FCS. […] The samples were measured on a FACSscan (BD biosciences, Heidelberg, FRG). Antigen binding was clearly detectable for the anti EpCAM specificities as well as for the anti CD3 specificities (see FIG. 8). As a negative control for binding to cynomolgus EpCAM, the 5-10LH×SEQ ID NO. […] The 5-10LH part only binds to human EpCAM.
row,Binder,binding result
1,B1,binds
2,B2,binds
3,B3,binds
4,B4,binds
5,B5,binds
6,B6,binds
7,B7,binds

# Biological target: cynomolgus CD3 antigen on cynomolgus PBMC / macaque T cells (Macaca fascicularis (cynomolgus), UniProt Q95LI5 22-117; Q95LI7 23-110; Q95LI8 22-103)
# Assay: cell-based or functional assay
# Sequence of cynomolgus CD3 antigen on cynomolgus PBMC / macaque T cells (Q95LI5 22-117, chain 1 of 3): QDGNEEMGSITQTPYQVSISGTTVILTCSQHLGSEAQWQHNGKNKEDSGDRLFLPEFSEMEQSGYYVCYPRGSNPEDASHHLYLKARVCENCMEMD
# Sequence of cynomolgus CD3 antigen on cynomolgus PBMC / macaque T cells (Q95LI7 23-110, chain 2 of 3): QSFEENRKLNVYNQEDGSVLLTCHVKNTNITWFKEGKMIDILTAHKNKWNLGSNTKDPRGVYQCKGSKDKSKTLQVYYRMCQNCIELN
# Sequence of cynomolgus CD3 antigen on cynomolgus PBMC / macaque T cells (Q95LI8 22-103, chain 3 of 3): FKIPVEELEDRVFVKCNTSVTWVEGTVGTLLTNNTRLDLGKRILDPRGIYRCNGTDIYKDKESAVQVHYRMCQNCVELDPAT
row,Binder,"EC50 (half maximal killing), FACS-based cytotoxicity, cynomolgus EpCAM transfected CHO target cells, cynomolgus PBMC effector cells"
1,B1,0.0398 µg/mL

# Biological target: T2, cynomolgus EpCAM antigen on transfected …
# Assay: cell-based or functional assay
Binder,"EC50 (half maximal killing), FACS-based cytotoxicity, cynomolgus EpCAM transfected CHO target cells, cynomolgus PBMC effector cells","EC50 (half maximal killing), FACS-based cytotoxicity, cynomolgus EpCAM transfected CHO target cells, human PBMC effector cells"
B1,0.0398 µg/mL,0.0011 µg/mL

# Biological target: T2, cynomolgus EpCAM antigen on transfected …
# Assay: FACS, cynomolgus EpCAM transfected CHO cells (FIG. 8B), anti-His detection
# Excerpt: as §1, §2
row,Binder,binding result
1,B2,binds
2,B3,binds
3,B4,binds
4,B5,binds
5,B6,binds
6,B7,binds
